Source: patent US12123009B2, “Methods and compositions for PPO herbicide tolerance in plants” (Monsanto Technology LLC, priority 2015, dated 2024)

Key:
[1] = test system: C=Cc1c2[nH]c(c1C)Cc1[nH]c(c(CCC(=O)O)c1C)Cc1[nH]c(c(C)c1CCC(=O)O)Cc1[nH]c(c(C)c1C=C)C2; test: purified protein, by the assay type; settings: other: apparent Km for protoporphyrinogen, pH 7.4, 37° C.
[2] = test system: Waterhemp (Amaranthus tuberculata) protoporphyrinogen oxidase (PPO), wild type; test: PPO enzyme assay (plastid extract); type: biochemical; settings: apparent Km for protoporphyrinogen; pH 7.4, 30° C.
[3] = test system: Soybean (Glycine max) protoporphyrinogen oxidase (PPO), wild type; test: PPO enzyme assay (plastid extract); type: biochemical; settings: apparent Km for protoporphyrinogen; pH 7.4, 30° C.
[4] = test system: H_N60 (SEQ ID NO: 3), microbial HemG protoporphyrinogen oxidase; test: PPO enzyme assay (bacterial extract); settings: apparent Km for protoporphyrinogen; pH 7.4, 37° C.
[5] = test system: H_N110 (SEQ ID NO: 10), microbial HemG protoporphyrinogen oxidase; test: PPO enzyme assay (bacterial extract); settings: apparent Km for protoporphyrinogen; pH 7.4, 37° C.
[6] = test system: Maize (Zea mays) protoporphyrinogen oxidase (PPO), wild type; test: PPO enzyme assay (plastid extract); type: biochemical; settings: apparent Km for protoporphyrinogen; pH 7.4, 30° C.
[7] = test system: soybean (A3555), non-transgenic or expressing H_N10 (SEQ ID NO:4); test: R0 soybean sprayed with flumioxazin; type: in vivo; settings: 210 g/ha, V3, 8 days
Protocol: In soybean, excised embryos (A3555) were transformed with the transformation constructs 1 and 11 using A. tumefaciens and standard methods known in the art. […] Regenerated R0 transgenic plantlets were grown in the greenhouse. […] The herbicide was sprayed at the V3 developmental stage with three fully developed trifoliate leaves and injury ratings were assessed 8 days after treatment. The percentage of plants that were deemed highly tolerant (15% or less injury) was noted.

[8] = test system: soybean plantlets; test: High-throughput soybean screening for herbicide tolerance (plantlets); type: in vivo, soybean (A3555); design: key: 0 for poor tolerance, high damage, low green coloration; 1 for some tolerance, average damage, moderate green coloration; 2 for good tolerance, low damage, high green coloration; settings: S-3100 spray five weeks post-transformation, scored day four
Description: A high-throughput plant transformation and screening method was used to evaluate large numbers of constructs in transgenic plants for herbicide tolerance in early transformation plantlet tissue. This allowed for faster and higher volume screening of construct configurations and PPO enzymes.
This permitted the side-by-side comparison of seven different HemG PPO enzymes with thirty-seven different targeting peptides using the same promoter and 3′UTR elements for gene expression. These plant transformation constructs were used to transform soybean excised embryos (germplasm A3555) using A. tumefaciens and standard methods known in the art. Four hundred explants were inoculated for each construct resulting in twelve containers per construct. A sterile PPO herbicide solution was used for herbicide tolerance testing. The herbicide solution consisted of 0.3 g of S-3100 in crop oil concentrate (5.0 mL) and 495 mL of deionized water. This was filtered through a 0.45 micron Nalgene® Rapid-Flow™ Tissue Culture Filter Unit and Surfactant-Free Cellulose Acetate membrane filter unit (VWR, Radnor, PA, USA). The resulting sterile solution was shaken before application.
At five weeks post-transformation, four of the twelve plant containers per construct were sprayed with two passes of the sterile PPO herbicide solution. The treated plantlets were then enclosed in the container and received at least 15 hours of light exposure post spray each day for four days. At the end of day four post application of S-3100, the treated plantlets were photographed and scored on a visual scale of green coloration (green coloration was representative of healthy photosynthetic plant tissue as compared to photo-bleached tissue) versus damage. The scoring values were 0 for poor tolerance, high damage, low green coloration; 1 for some tolerance, average damage, moderate green coloration; and 2 for good tolerance, low damage, high green coloration. The scoring for each construct is presented in Table 9, where n.d. indicates the analysis was not conducted.

[9] = test system: transgenic maize plants; test: R0 transgenic maize 40 g/ha S-3100 spray test; type: in vivo
Description: H_N60 (SEQ ID NO:3). […] These five constructs had the same promoter plus leader plus intron combination, with two different targeting peptide (TP) sequences, and the same 3′UTR sequence. Leaf samples were taken from the R0 plants and analyzed by PCR to determine the transgene copy number. Single copy plants for up to 12 unique events per construct were transplanted to pots, selfed and outcrossed to generate R1 and F1 seed, respectively, for future testing. Multi-copy plants and extra single copy plants were sprayed with 40 grams/ha 5-3100 at approximately the V5 growth stage and injury ratings were taken 7 days after treatment. The average percent (%) injury for all plants expressing each PPO enzyme and the number of plants that were deemed highly tolerant (less than 10% injury) was noted, where each plant is a unique single or multi-copy transformant.

[10] = test system: R0 soybean plants; test: R0 transgenic soybean herbicide tolerance at eleven weeks; type: in vivo; settings: R0 plants sprayed with S-3100 at eleven weeks, rated seven days after treatment
Protocol: The plantlets in the non-sprayed containers corresponding to constructs having a score of 2 were transplanted at approximately 7 weeks post transformation and grown as R0 plants using standard methods known in the art. Plantlets corresponding to non-tolerant scores of 0 and 1 were also grown to serve as negative controls. The R0 plants were grown in a greenhouse under long-day nursery conditions (18 hr light at 80° F. then 6 hr dark at 74° F.) for approximately four weeks. At eleven weeks, the R0 plants were sprayed with two passes of the same herbicide solution (0.3 g of 5-3100) described above. Herbicide injury ratings were collected seven days after treatment.
The results of the herbicide tolerance application at eleven weeks to the R0 plants confirmed the low percent injury rating scores observed in the high-throughput screen at five weeks. Any injury rating of 30% or above was equivalent to non-transgenic soybean injury ratings. A few of the constructs stood out as providing very good tolerance to the herbicide application. […] Data are provided in Table 10, where n.d. indicates the analysis was not conducted.

[11] = H_N10 (SEQ ID NO:4), construct 11
[12] = 40 grams/ha S-3100 at V5, 7 days after treatment, R0 plants

“H_N10 (SEQ ID NO: 4), E. coli wild-type HemG protoporphyrinogen oxidase (Escherichia coli CFT073)” showed a Km [1] of 0.7 µM.

“H_N20 (SEQ ID NO: 2), microbial HemG protoporphyrinogen oxidase (Pantoea ananatis LMG 5342)” showed a Km [1] of 0.8 µM.

Molecule `C=Cc1c2[nH]c(c1C)Cc1[nH]c(c(CCC(=O)O)c1C)Cc1[nH]c(c(C)c1CCC(=O)O)Cc1[nH]c(c(C)c1C=C)C2` [protoporphyrinogen, protoporphyrinogen IX] has a Km [2] of 0.7 µM, a Km [3] of 1.8 µM and a Km [4] of 1.1 µM. The Km [5] was 0.3 µM and the Km [6] was 2 µM.

In the case of “H_N50 (SEQ ID NO: 7), microbial HemG protoporphyrinogen oxidase (Shimwellia blattae DSM 4481 = NBRC 105725)”, the Km [1] is reported as 1.0 µM.

“H_N30 (SEQ ID NO: 5), microbial HemG protoporphyrinogen oxidase (Winslowiella toletana)” was tested, and the Km [1] was 1.0 µM.

With `C#CCN1C(=O)COc2cc(F)c(N3C(=O)C4=C(CCCC4)C3=O)cc21` [flumioxazin] the average injury rating [7, 11] was 22%, the “highly tolerant plants (15% or less injury)” value [7, 11] was 9% and the average injury rating ([7]; non-transgenic) was 30%. For the same molecule, the “highly tolerant plants (15% or less injury)” value ([7]; non-transgenic) was “no highly tolerant plants”.

B1: H_N40: microbial HemG protoporphyrinogen oxidase, SEQ ID NO:6 (SEQ ID NO:15 lacking start methionine) (protein, listed as Pectobacterium carotovorum)
chain: MKALIVFSSRDGQTRAIASYIANTLKGTLECDVVNVLNANDIDLSQYDRVAIGASIRYGRFHPAVNQFIRKHLTSLQQLPSAFFSVNLTARKPEKRTIQTNAYTRKFLLNSPWQPDLCCVFAGALRYPRYRWFDRVMIQLIMRITGGETDSTKEIEYTDWQQVARFAQDFAQLAAKNPA
B1 showed a coloration score ([8]; TP9) of 0, a coloration score ([8]; TP11) of 1 and a coloration score ([8]; TP12) of 1. It also gave a coloration score ([8]; TP13) of 1, a coloration score ([8]; TP14) of 2 and a coloration score ([8]; TP15) of 2. The coloration score ([8]; TP17) was 1, the coloration score ([8]; TP18) was 1 and the coloration score ([8]; TP19) was 1. It also gave a coloration score ([8]; TP21) of 2, a coloration score ([8]; TP23) of 1 and a coloration score ([8]; TP24) of 0. It also gave a coloration score ([8]; TP25) of 2, a coloration score ([8]; TP26) of 1 and a coloration score ([8]; TP27) of 1. For the same molecule, the coloration score ([8]; TP28) was 1, the coloration score ([8]; TP29) was 1 and the coloration score ([8]; TP30) was 1. It also gave a coloration score ([8]; TP31) of 1, a coloration score ([8]; TP32) of 1 and a coloration score ([8]; TP33) of 0. The “Average Injury” value [9, 12] was 47.0%, the “Highly Tolerant (number of plants with less than 10% injury)” value [9, 12] was 53 and the “injury rates when expressed in transgenic plants (crop tolerance to a PPO herbicide)” value ([9]; R0 transgenic maize data) was “reduced injury rates”. For the same molecule, the percent injury score ([10]; TP1) was 5%, the percent injury score ([10]; TP13) was 15% and the percent injury score ([10]; TP14) was 35%. It also gave a percent injury score ([10]; TP15) of 30%, a percent injury score ([10]; TP21) of 35% and a percent injury score ([10]; TP25) of 15%.
